Experimental findings from article PMC11993684, “Fibromodulin selectively accelerates myofibroblast apoptosis in cutaneous wounds by enhancing interleukin 1β signaling” (Nature Communications, 2025) are described below.

To fix the notation:
T1: recombinant human fibromodulin (FMOD) with C-terminal His-tag (human, UniProt Q06828 19-376)
T1 chain: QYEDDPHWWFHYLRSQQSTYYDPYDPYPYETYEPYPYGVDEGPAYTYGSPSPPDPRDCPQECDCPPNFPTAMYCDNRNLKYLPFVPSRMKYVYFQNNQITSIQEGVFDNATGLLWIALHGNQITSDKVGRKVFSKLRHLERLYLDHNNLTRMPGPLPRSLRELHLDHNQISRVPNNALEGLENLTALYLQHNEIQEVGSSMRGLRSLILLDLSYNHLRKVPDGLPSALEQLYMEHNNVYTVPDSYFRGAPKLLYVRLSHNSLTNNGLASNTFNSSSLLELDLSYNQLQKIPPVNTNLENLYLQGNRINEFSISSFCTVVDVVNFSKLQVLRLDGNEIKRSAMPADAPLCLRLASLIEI

B1: recombinant human fibromodulin (FMOD) with C-terminal His-tag (natural protein, UniProt Q06828 19-376, looked up)
chain: T1 chain
notes: fibromodulin, human; cDNA of a human FMOD transcript (NM_002023) subcloned into pSecTag2A; secreted into the culture supernatant of CHO-K1 cells; Proteoglycan made in CHO cells; also called His-tagged FMOD; not shown: His-tag, C-terminal, kept
B2: recombinant IL1R1 (R&D Systems 269-1R-100/CF) (receptor, human, UniProt P14778 18-336, looked up)
chain: LEADKCKEREEKIILVSSANEIDVRPCPLNPNEHKGTITWYKDDSKTPVSTEQASRIHQHKEKLWFVPAKVEDSGHYYCVVRNSSYCLRIKISAKFVENEPNLCYNAQAIFKQKLPVAGDGGLVCPYMEFFKNENNELPKLQWYKDCKPLLLDNIHFSGVKDRLIVMNVAEKHRGNYTCHASYTYLGKQYPITRVIEFITLEENKPTRPVIVSPANETMEVDLGSQIQLICNVTGQLSDIAYWKWNGSVIDEDDPVLGEDYYSVENPANKRRSTLITVLNISEIESRFYKHPFTCFAKNTHGIDAAYIQLIYPVTNFQK
notes: interleukin 1 receptor type 1, recombinant, His-tag-free, 55 kDa on SDS-PAGE, carrier-free; also called interleukin 1 receptor type 1; source: bought: R&D Systems (carrier-free)

Test [1] has as its target T2, IL1β-IL1R1-IL1RAP ternary complex formed in vitro from recombinant proteins (human, UniProt P01584 117-269; P14778 18-336; Q9NPH3 21-367).
T2 construct: interleukin 1 beta, human, recombinant, His-tag-free, 17 kDa on SDS-PAGE; as m2; interleukin 1 receptor type 1, recombinant, His-tag-free, 55 kDa on SDS-PAGE; as m3; interleukin 1 receptor accessory protein, recombinant, His-tag-free, 70-75 kDa on SDS-PAGE; as m4; See the notes of m3 and m4 on the bought constructs; also called IL1β-IL1R1-IL1RAP complex; IL1β-IL1R1-ILRAP ternary complex; source: …
Briefly: pull-down; Pierce His Protein Interaction Pull-Down Kit; 150 μg His-tagged FMOD immobilised as bait; His-tag-free 100 μg IL1β, 100 μg IL1R1, 100 μg IL1RAP, or the complex formed beforehand (100 μg IL1β, 50 μg IL1R1, 50 μg IL1RAP, 4 °C overnight) as prey; eluate by SDS-PAGE and Western blotting. Particulars: both partners purified. In general terms: Immunoblotting shows a protein as a band on a membrane.

Test [2] concerns the target T1, recombinant human fibromodulin (FMOD) …. Description: SPR.
For test [3], the target named is B1. Description: SPR; Biacore 3000; FMOD immobilised on CM5 chip by amine coupling; IL1R1 or IL1RAP in HBS-EP pH 7.4 (0.15 M NaCl, 10 mM HEPES, 3 mM EDTA, 0.005% polysorbate 20), 50 μL/minute; double referencing; Scrubber 2.0. Particulars: both partners purified. For orientation: In SPR one partner is held on a chip, and binding of the other changes the refractive index at the surface.

Regarding B1, the binding result in test [1] was “binds”. For orientation: koff means the first-order rate constant of dissociation. By Kd is commonly meant the concentration at which binding is half-saturated. For B2, the koff in test [2] was 0.02 s⁻¹. Moreover, in test [3], the Kd is 0.43 µM.
